Changes are numbered by the printed parent chain. One block for each binder: values may come before it.
How the values were obtained:
[1] = molecular target: T1, Recombinant human MMR (R&D systems) (human, UniProt P22897 19-1383); assay: PE-ELISA, periplasmic extract on coated human MMR, OD405 at least 3x over milk-blocking proteins
T1 construct: Bought protein (R&D Systems #2534) coated on ELISA plates; also called hMMR; MRC1
T1 sequence: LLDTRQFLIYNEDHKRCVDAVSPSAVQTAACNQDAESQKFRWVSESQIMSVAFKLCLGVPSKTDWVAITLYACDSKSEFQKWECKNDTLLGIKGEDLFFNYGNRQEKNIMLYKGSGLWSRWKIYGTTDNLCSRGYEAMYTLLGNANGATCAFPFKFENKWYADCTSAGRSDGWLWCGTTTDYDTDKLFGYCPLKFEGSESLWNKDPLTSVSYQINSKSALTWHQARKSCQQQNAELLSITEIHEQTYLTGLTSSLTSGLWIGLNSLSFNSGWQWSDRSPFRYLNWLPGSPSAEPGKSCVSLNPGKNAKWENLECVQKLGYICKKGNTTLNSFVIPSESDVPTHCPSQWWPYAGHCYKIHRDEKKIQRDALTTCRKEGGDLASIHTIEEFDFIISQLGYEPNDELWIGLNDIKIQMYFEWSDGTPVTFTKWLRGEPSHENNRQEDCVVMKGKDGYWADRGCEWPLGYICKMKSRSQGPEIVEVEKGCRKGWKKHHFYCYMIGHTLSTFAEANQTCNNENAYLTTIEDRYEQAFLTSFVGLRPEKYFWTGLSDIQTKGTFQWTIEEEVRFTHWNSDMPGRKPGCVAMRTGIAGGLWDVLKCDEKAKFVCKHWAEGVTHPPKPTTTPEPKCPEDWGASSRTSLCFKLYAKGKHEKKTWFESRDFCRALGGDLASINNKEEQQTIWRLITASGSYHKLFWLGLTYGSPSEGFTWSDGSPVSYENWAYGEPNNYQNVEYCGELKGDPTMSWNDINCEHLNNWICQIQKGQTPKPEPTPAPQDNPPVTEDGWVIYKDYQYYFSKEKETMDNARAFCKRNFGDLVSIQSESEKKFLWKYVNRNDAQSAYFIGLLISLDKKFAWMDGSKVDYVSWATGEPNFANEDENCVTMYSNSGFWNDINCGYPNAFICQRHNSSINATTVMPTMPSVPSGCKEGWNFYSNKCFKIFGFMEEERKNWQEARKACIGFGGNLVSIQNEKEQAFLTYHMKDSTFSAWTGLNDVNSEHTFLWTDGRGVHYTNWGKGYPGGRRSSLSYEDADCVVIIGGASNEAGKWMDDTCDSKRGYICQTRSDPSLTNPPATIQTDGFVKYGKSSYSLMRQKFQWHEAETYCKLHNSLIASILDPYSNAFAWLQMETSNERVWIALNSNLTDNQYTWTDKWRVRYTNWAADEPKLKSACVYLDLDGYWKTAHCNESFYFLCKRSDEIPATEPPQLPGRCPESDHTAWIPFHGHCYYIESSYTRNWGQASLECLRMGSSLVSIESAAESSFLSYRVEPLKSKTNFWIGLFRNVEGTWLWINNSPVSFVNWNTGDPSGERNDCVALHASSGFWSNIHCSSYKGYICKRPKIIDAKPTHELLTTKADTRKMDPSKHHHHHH

[2] = molecular target: T1, Recombinant human MMR (R&D systems); assay: PE-ELISA, periplasmic extract on coated human MMR
[3] = molecular target: T2, Recombinant mouse MMR (R&D systems) (mouse, UniProt Q61830 20-1388); assay: PE-ELISA, periplasmic extract on coated mouse MMR
T2 construct: Bought recombinant extracellular portion of mouse MMR with a C-terminal His tag; It was immobilized on the CM5 chip for SPR and coated on plates for PE-ELISA; The SPR methods say only 'MMR'; also called mMMR; recombinant MMR
T2 sequence: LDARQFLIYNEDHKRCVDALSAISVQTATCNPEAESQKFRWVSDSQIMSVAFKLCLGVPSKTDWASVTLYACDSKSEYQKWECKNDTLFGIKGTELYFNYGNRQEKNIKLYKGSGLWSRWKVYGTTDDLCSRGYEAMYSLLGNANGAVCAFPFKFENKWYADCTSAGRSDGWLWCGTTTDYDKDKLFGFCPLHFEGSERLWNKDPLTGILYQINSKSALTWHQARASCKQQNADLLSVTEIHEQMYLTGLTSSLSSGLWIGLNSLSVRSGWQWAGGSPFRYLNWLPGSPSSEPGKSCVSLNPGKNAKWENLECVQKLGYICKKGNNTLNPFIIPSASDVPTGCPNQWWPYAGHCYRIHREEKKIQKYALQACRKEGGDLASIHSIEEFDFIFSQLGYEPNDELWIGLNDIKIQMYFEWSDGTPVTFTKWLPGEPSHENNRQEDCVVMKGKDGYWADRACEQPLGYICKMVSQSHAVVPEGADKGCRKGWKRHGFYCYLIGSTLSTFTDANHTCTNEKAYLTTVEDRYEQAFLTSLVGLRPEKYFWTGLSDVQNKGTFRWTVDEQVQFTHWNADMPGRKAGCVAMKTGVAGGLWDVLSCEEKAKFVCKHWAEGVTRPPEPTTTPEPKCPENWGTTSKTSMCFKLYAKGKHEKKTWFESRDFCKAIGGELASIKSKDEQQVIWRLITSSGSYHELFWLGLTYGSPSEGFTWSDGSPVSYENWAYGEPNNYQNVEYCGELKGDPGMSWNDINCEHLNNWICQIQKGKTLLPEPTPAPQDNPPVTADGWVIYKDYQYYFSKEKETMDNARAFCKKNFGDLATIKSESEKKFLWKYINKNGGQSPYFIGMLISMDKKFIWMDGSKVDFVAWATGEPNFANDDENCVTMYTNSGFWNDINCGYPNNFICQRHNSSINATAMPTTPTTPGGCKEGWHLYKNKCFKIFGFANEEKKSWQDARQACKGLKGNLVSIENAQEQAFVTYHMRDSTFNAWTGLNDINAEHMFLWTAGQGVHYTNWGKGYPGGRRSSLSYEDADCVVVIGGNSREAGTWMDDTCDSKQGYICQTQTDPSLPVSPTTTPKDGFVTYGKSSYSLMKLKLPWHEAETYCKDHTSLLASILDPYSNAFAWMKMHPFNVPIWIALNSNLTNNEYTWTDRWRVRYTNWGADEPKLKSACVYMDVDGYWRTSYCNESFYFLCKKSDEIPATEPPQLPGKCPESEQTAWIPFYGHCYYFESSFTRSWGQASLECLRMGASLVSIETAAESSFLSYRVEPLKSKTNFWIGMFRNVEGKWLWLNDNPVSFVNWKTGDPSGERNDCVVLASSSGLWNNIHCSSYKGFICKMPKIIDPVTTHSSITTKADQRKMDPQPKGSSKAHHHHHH

B1: NbhMMRm1.33 (VHH)
VHH: QVQLQESGGGLVQPGGSLRLSCAASGFTLDNYTVAWFRQAPGKEREGVSCISSSGGSTNYADSVKGRFTISRDNSKKSVYLQMNSLKPEDTAIYTCAAERAPPYYSGYYFFDSTCVAASYDYWGQGTQVTVSS
notes: Tested as a periplasmic extract in PE-ELISA
binding result [1]: binds

B2: NbhMMRm2.15 (VHH)
VHH: QVQLQESGGGLVQPGESLRLSCKLSGFTLDYYDIGWFRQAPGKEREGVSCISSIGGSANYADSVKGRFTISRDNVKNTVYLQMNSLKPEDTAIYYCAAEAQTPYNDGDCTRASYDYWGQGIQVTVSS
notes: as for B1
binding result [1]: binds

B3: NbhmMMRm17.72 (VHH)
VHH: QVQLQESGGGLVQPGGSLRLSCAASGSIVSINAMGWYRQAPGKQRELVALVTGSGRTNLADSVKGRFTISRDNAKNTVYLQMNSLKPEDTAVYYCNVLVIGPLEGYDYWGQGTQVTVSS
notes: as for B1
binding result [2]: binds | binding result [3]: binds

B4: NbhMMRm3.1 (VHH)
VHH: QVQLQESGGGLVQPGGSLRLSCAASGFTLDYYAIGWFRQAPGKEREGISCISYKGGSTTYADSVKGRFTISKDNAKNTAYLQMNNLKPEDTGIYYCAAGFVCYNYDYWGPGTQVTVSS
notes: as for B1
binding result [1]: binds

B5: NbhmMMRm3.49 (VHH)
VHH: B4 VHH with T28S, N85S, Y95S, P110Q
notes: as for B1
binding result [2]: binds | binding result [3]: binds

B6: NbhmMMRm20.52 (VHH)
VHH: QVQLQESGGGLVQAGGSLRLSCAASGRIFSAYAMGWFRQAPGKEREFVAAISRSGDSTDYADSVKGRFTISRDSAKNMVYLQMNSLKPEDTALYHCAARTVSAPPSAAWGYGYWGQGTQVTVSS
notes: as for B1
binding result [2]: binds | binding result [3]: binds

B7: NbhmMMRm14.4 (VHH)
VHH: QVQLQESGGGLVQAGDSLRLSCAASGRTFSINYMGWYRQAPGKQRELVAAITSGSGSTNYADSVKGRFTISRDNAKNTMYLQMNSLKPEDTAVYYCNADMDSSLSGGYVDVWGQGTQVTVSS
notes: as for B1
binding result [2]: binds | binding result [3]: binds

B8: NbhmMMRm14.93 (VHH)
VHH: B7 VHH with N77K
notes: as for B1
binding result [2]: binds | binding result [3]: binds

B9: NbhmMMRm22.84 (VHH)
VHH: QVQLQESGGGLVQPGGSLRLSCAASGRTFSNYVNYAMGWFRQFPGKEREFVASISWSSVTTYYADSVKGRFTISRDNAKNTVYLQMNSLKPEDTAVYYCAAHLAQYSDYAYRDPHQFGAWGQGTQVTVSS
notes: as for B1
binding result [2]: binds | binding result [3]: binds

B11: NbhMMRm10.19 (VHH)
VHH: QVQLQESGGGLVQPGGSLKLSCAASGSIFSIKTMGWYRQAPGKQRELVAAITSGGSTNYADSVKGRFTISRDNAKNTVYLQMNSLKPEDTAVYYCNADGVVAWDQPYDNYWGQGTQVTVSS
notes: as for B1
binding result [1]: binds

More lines, now with the values ahead:

binding result [2]: binds | binding result [3]: binds
B10: NbhmMMRm19.52 (VHH)
VHH: QVQLQESGGGLVQAGGSLRLSCLASGDTFSNYVMAWFRQAPGKEREIVAAIRLSGARYVPDSVKGRFTISRDNAKNAMYLQMTSLKPEDTARYYCAAGHTWGQYAYWGQGTQVTVSS
notes: as for B1

binding result [2]: binds | binding result [3]: binds
B12: NbhmMMRm10.79 (VHH)
VHH: B11 VHH with I51V, T52S, T77A
notes: as for B1

binding result [1]: binds
B13: NbhMMRm12.6 (VHH)
VHH: QVQLQESGGGLVQPGGSLRLSCVVSGSFLSINHMGWYRQVSGEQRELVAAITSGGSTNYADSVKGRFTISRDSAKNTVYLQMNSLKPEDTAVYYCNADALTMLPPFDFWGQGTQVTVSS
notes: as for B1

binding result [1]: binds
B14: NbhMMRm5.38 (VHH)
VHH: QVQLQESGGGLVQAGGSLRLSCAASGFTDDDYDIGWFRQAPGKEREGVSCISSSDGSTYYADSVKGRFTISSDNAKNTVYLQMNSLKPEDTAVYYCAADFFRWDSGSYYVRGCRHATYDYWGQGTQVTVSS
notes: as for B1

binding result [2]: binds | binding result [3]: binds
B15: NbhmMMRm15.49 (VHH)
VHH: QVQLQESGGGLVQAGGSLRLSCAASGSTFSINNMGWYRQAPGKQRELVAGITGGNTHYADSVKGRFTISRDNAKNTMYLQMNSLKPEDTAVYYCNANWGAYWGQGTQVTVSS
notes: as for B1

binding result [2]: binds | binding result [3]: binds
B16: NbhmMMRm24.31 (VHH)
VHH: QVQLQESGGGLVQPGGSLRLSCTATGFTLKNHHIGWLRQAPGKEREGVASINSSGGSTNYADSVQGRFTISRDNAKNTVFLQMNSLKSEDTAVYYCARLRRYYGLNLDPGSYDYWGQGTQVTVSS
notes: as for B1

binding result [2]: binds | binding result [3]: binds
B17: NbhmMMRm6.71 (VHH)
VHH: QVQLQESGGGLVQAGGSLRLSCAASGGTFDDSVIGWFRQAPGKEREGVSCISSNDGTTHYASPVKGRFTISSDNAKNTVYLQMNSLKPEDTAVYYCAAETPSIGSPCTSASYDYWGQGTQVTVSS
notes: as for B1

From patent publication US20120301394A1 (published 2012)
